Substrate: C[C@@H](O)C(=O)O
Assay: TP_TRANSPORTER: uptake in Xenopus laevis oocytes
Assay type: functional, cell-based
Settings: Oocyte

B1: Monocarboxylate transporter 1 (Rattus norvegicus), P53987 (protein)
chain: MPPAIGGPVGYTPPDGGWGWAVVVGAFISIGFSYAFPKSITVFFKEIEIIFSATTSEVSWISSIMLAVMYAGGPISSILVNKYGSRPVMIAGGCLSGCGLIAASFCNTVQELYFCIGVIGGLGLAFNLNPALTMIGKYFYKKRPLANGLAMAGSPVFLSTLAPLNQAFFGIFGWRGSFLILGGLLLNCCVAGSLMRPIGPQQGKVEKLKSKESLQEAGKSDANTDLIGGSPKGEKLSVFQTVNKFLDLSLFTHRGFLLYLSGNVVMFFGLFTPLVFLSNYGKSKHFSSEKSAFLLSILAFVDMVARPSMGLAANTRWIRPRVQYFFAASVVANGVCHLLAPLSTTYVGFCIYAGVFGFAFGWLSSVLFETLMDLVGPQRFSSAVGLVTIVECCPVLLGPPLLGRLNDMYGDYKYTYWACGVILIIAGLYLFIGMGINYRLVAKEQKAEEKKRDGKEDETSTDVDEKPKKTMKETQSPAPLQNSSGDPAEEESPV
- Km: 5.6 mM

— ChEMBL document CHEMBL2074141, “Comparison of lactate transport in astroglial cells and monocarboxylate transporter 1 (MCT 1) expressing Xenopus laevis oocytes. Expression of two different monocarboxylate transporters in astroglial cells and neurons” (J Biol Chem, 1997)
